This is an account of results in PMC3627919.

One test concerns the target Nfluc416-WASP (human) (UniProt P42768). As to the kind of experiment: split reporter (BiFC, NanoBiT); bimolecular luminescence complementation (split firefly luciferase) in living HEK 293 cells, 24 h after transient cotransfection of the pair (50 ng/well) with pRL-tk; D-luciferin 150 ug/ml; IVIS CCD camera; ratio FL at 600 nm to RL at 500 nm; wild-type pairs also with co-expressed GEF or GAP catalytic domains.

Another test deals with Nfluc416-PAK (UniProt Q13153). As to the kind of experiment: split-luciferase complementation (BiLC) optical imaging in transiently cotransfected 293 cells. The following applies: parent: est. 4.6; read off a plot.
In another test the target is Nfluc416-PKN (human) (UniProt Q16512). As to the kind of experiment: split reporter (BiFC, NanoBiT); bimolecular luminescence complementation (split firefly luciferase) in living HEK 293 cells, 24 h after transient cotransfection of the pair (50 ng/well) with pRL-tk; D-luciferin 150 ug/ml; IVIS CCD camera; ratio FL at 600 nm to RL at 500 nm; wild-type pairs also with co-expressed GEF or GAP catalytic domains.
Sequence of Nfluc416-PKN (human) (Q16512 13-112): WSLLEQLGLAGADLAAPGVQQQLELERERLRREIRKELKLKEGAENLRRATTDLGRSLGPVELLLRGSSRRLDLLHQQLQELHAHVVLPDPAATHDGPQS

Sequence of Nfluc416-WASP (human) (P42768 220-288): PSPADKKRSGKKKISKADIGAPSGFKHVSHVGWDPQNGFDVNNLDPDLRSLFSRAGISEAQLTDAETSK

For “CDC42-Cfluc398 (CDC42 G12V) (from UniProt P60953 1-176; P60953 171-191) (natural protein)”, in the test with Nfluc416-WASP (human), the reconstituted luminescence (FL/RL), fold over CDC42 F37A is 12.7 fold; the reconstituted luminescence (FL/RL), fold over CDC42 T17N stood at 6.8 fold; the reconstituted luminescence (FL/RL), fold over CDC42 WT was found to be 2.9 fold.
Consider “Cfluc398-RacI(WT) (from UniProt P63000) F37A”, for which the response with Nfluc416-PAK was 1.4 FL/RL.
Take “Cfluc398-RacI(WT) (from UniProt P63000) T17N”: the response with Nfluc416-PAK was 2.1 FL/RL.
In the case of “Cfluc398-RhoA(G14V) (from UniProt P61586 1-193) (natural protein)”, the luminescence signal, fold of the active mutant over the wild type with Nfluc416-PKN (human) was 5.15 fold.
